Laboratory results from publication PMC2820149 (Journal of the American Chemical Society, 2010).
Each block holds one molecule with its values, some of them ahead of it.

Legend:
[1] = test system: Pa0142 homologue (gi|44264246)
[2] = substrate: Nc1nc2nc[nH]c2c(=O)[nH]1; test: deamination kinetics; format: biochemical, Pseudomonas aeruginosa
[3] = substrate: Nc1nc2nc[nH]c2c(=O)[nH]1; test: coupled ammonia assay; format: biochemical, Pseudomonas aeruginosa; settings: pH 8.0, 30 °C
[4] = substrate: Nc1nccc(O)n1; test: coupled ammonia assay; format: biochemical, Pseudomonas aeruginosa; settings: pH 8.0, 30 °C
[5] = substrate: Nc1nc2nc[nH]c2c(=O)[nH]1; test: deamination kinetics; format: biochemical, Escherichia coli

Km [1]: 1600 ± 200 µM
Molecule: Nc1nccc(=O)[nH]1 [compound 3, isocytosine]

Km [1]: 1000 ± 100 µM
Molecule: Nc1nc2[nH]cnc2c(=O)[nH]1 [compound 2, guanine]

B1: Pa0134 (Pseudomonas aeruginosa PAO1) (protein)
chain: MNDAVPAGNFVPPLILHSDHGGSAMSSSAHRGRILHFLGDPAKLGDKAWEYFEDGLLWIEHGHVRALDHATYLLPQLPADLPLEEHPQRLLLPGFVDCHVHYPQLGVIASYGTQLLDWLETHTFPAEQRFADAGYAAAQAELFLDELLRHGTTTALVFGTVHAVSAEAFFQAAQKRRLRMIAGKVLMDRNAPPALCDTAASGYAESRALIERWHGNGRLQYAVTPRFAPTSSPEQLAAAARLLDEYPGVYLHTHLSENLKEVAWVGELFPQAQDYLDVYHRAGLVGERSVFAHGIHLSERECRCLAHKNAALAHCPSSNLFIGSGLFDLGRAQQYGIRVGIGSDVGGGTSLSLLANLADAYKIQQLRGTSLDPFQALYLATLGGARALDLDGLVGNFLPGREADFVALDLAATPMIAQRMEHARGLADTLFVLNTLGDDRAVAETWVMGERRHVKG
Km [2]: 500 ± 90 µM | kcat [2]: 21 ± 2 s⁻¹

B2: Pa0142 (Pseudomonas aeruginosa PAO1) (protein)
chain: MSRTWIRNPLAIFTANGLDAAGGLVVEDGRIVELLGAGQQPAQPCASQFDASRHVVLPGLVNTHHHFYQTLTRAWAPVVNQPLFPWLKTLYPVWARLTPEKLELATKVALAELLLSGCTTAADHHYLFPGGLEQAIDVQAGVVEELGMRAMLTRGSMSLGEKDGGLPPQQTVQEAETILADSERLIARYHQRGDGARVQIALAPCSPFSVTPEIMRASAEVAARHDVRLHTHLAETLDEEDFCLQRFGLRTVDYLDSVGWLGPRTWLAHGIHFNAEEIRRLGEAGTGICHCPSSNMRLASGICPTVELEAAGAPIGLGVDGSASNDASNMILEARQALYLQRLRYGAERITPELALGWATRGSARLLGRSDIGELAPGKQADLALFKLDELRFSGSHDPLSALLLCAADRADRVMVGGAWRVVDGAVEGLDLAALIARHRAAASALIAG
Km [3]: 2600 ± 600 µM | kcat [3]: 3.3 ± 0.6 s⁻¹ | Km [4]: 1800 ± 100 µM | kcat [4]: 3.9 ± 0.1 s⁻¹

B3: b2883 (Escherichia coli K-12) (protein)
chain: MMSGEHTLKAVRGSFIDVTRTIDNPEEIASALRFIEDGLLLIKQGKVEWFGEWENGKHQIPDTIRVRDYRGKLIVPGFVDTHIHYPQSEMVGAYGEQLLEWLNKHTFPTERRYEDLEYAREMSAFFIKQLLRNGTTTALVFGTVHPQSVDALFEAASHINMRMIAGKVMMDRNAPDYLLDTAESSYHQSKELIERWHKNGRLLYAITPRFAPTSSPEQMAMAQRLKEEYPDTWVHTHLCENKDEIAWVKSLYPDHDGYLDVYHQYGLTGKNCVFAHCVHLEEKEWDRLSETKSSIAFCPTSNLYLGSGLFNLKKAWQKKVKVGMGTDIGAGTTFNMLQTLNEAYKVLQLQGYRLSAYEAFYLATLGGAKSLGLDDLIGNFLPGKEADFVVMEPTATPLQQLRYDNSVSLVDKLFVMMTLGDDRSIYRTYVDGRLVYERN
Km [5]: 150 ± 10 µM | kcat [5]: 12.5 ± 0.2 s⁻¹
